# T1: TP-51 peptide (aa 352-414 of SEQ ID NO:1) (human)
# T1 construct: Synthetic peptide (Pepscan)
# T1 peptide: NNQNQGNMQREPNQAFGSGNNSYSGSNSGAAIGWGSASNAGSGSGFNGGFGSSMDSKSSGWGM
# How the values were obtained:
# [1] = target: T2, recombinant human full-length TDP-43 (TAR DNA-binding protein 43), soluble (human, UniProt Q13148 1-414); assay: SPR 8K, immobilized soluble TDP-43; IgG1
# T2 construct: Used on Luminex beads, coated on ELISA plates, and immobilized or injected in SPR; also called FL TDP-43; TDP-43 protein
# T2 sequence (Q13148 whole entry): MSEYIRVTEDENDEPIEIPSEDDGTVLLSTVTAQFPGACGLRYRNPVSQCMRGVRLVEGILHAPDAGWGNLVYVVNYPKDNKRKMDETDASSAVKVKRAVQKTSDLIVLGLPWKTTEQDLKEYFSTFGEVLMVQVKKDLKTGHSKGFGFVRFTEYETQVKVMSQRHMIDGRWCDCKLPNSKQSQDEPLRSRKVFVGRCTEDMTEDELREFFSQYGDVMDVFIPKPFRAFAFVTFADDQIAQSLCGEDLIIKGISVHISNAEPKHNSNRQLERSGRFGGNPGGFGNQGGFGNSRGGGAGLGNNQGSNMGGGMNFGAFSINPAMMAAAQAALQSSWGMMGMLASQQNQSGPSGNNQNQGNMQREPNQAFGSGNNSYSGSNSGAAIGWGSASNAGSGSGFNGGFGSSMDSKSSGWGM
# Experimental: (§1) The instrument was primed with running buffer PBS-P+ and flow cells (Fc) 1 and 2 of channels 1-8 were activated with a fresh solution of EDC/NHS (Amine Coupling Kit, 1:1 ratio of both reagents, GE Healthcare Life Sciences, BR-1006-33) at 10 µL/min for 420 sec. Soluble TDP-43 (Selvita) was diluted in sodium acetate pH 4.5 to a final concentration of 5 µg/mL and injected for 900 sec with a flow rate of 5 µL/min on Fc 2. All flow cells were quenched with 1 M ethanol amine (GE Healthcare Life Sciences, BR-1006-33), at 10 µL/min for 420 sec. Immobilization levels after ethanolamine quenching were 680 RU on all eight channels. Prior to analysis, two Startup cycles were run. Increasing mAbs concentrations were injected in single-cycle kinetics ranging from 1.2 to 100 nM, prepared from a 3-fold serial dilution in running buffer, with a contact time of 300 sec and a dissociation time of 900 sec at a flow rate of 30 µL/min. Each cycle was followed by one regeneration using 10 mM Glycine-HCl pH 1.7 with a contact time of 30 sec at 30 µL/min, followed by a stabilization period of 300 sec. Results obtained from single-cycle kinetics were double-referenced using the blank Fc 1 and buffer cycles and evaluated using Biacore 8 K evaluation software using the 1:1 kinetic fit model with RI and global Rmax. The following kinetic parameters were obtained: association rate constant (ka), dissociation rate constant (kd), affinity constant (KD) and saturation response (Rmax).
# [2] = target: T1, TP-51 peptide (aa 352-414 of SEQ ID …); assay: SPR 8K, mAb captured, TP-51 injected; IgG1
# Experimental: (§2) The instrument was primed with running buffer PBS-P+. Fc 1-2 of channels 1-8 (8 K) were activated with a fresh solution of EDC/NHS(Amine Coupling Kit, 1:1 ratio of both reagents, GE Healthcare Life Sciences, BR-1006-33) at 10 µL/min for 420 sec and goat anti-human antibody (GE Healthcare Life Sciences, 29234600) was immobilized at 25 µg/mL in 10 mM sodium acetate pH 5 for 420 sec. Next, all Fc were quenched with 1 M ethanol amine(GE Healthcare Life Sciences, BR-1006-33), for 420 sec. Any non-covalently bound antibodies were removed by two regenerations with 10 mM Glycine-HCl pH 1.7 for 30 sec. Immobilization levels were evaluated following ethanolamine quenching (10000 RU for all channels).
# (§3) Each cycle started with non-covalent capture of humanized variants which were diluted in running buffer to a final concentration of 2 µg/mL and injected for 60 sec with a flow rate of 10 µL/min. TDP-43 mAbs were captured on channels 1-8, leaving Fc 1 as a blank Fc. Capture levels were evaluated following a 120 sec stabilization period after each mAb injection and ranged from 300-500 RU.
# (§4) Injections of TP-51 peptide (Pepscan) were performed in single-cycle kinetics with increasing concentrations ranging from 1.2-100 nM prepared from serial 3-fold dilutions. Injections were performed with contact times of 300 sec/injection at a flow rate of 25 µL/min. A dissociation phase of 3600 sec followed the final injection. Sensor surface was regenerated by one injection of 10 mM Glycine-HCl pH 1.7 at a flow rate of 10 µL/min for 120 sec, followed by a stabilization period of 300 sec. Results obtained from single-cycle kinetics were double-referenced using the blank Fc 1 and buffer cycles and evaluated by Biacore 8 K evaluation software with 1:1 kinetic fit model with RI and global Rmax. The following kinetic parameters were obtained: association rate constant (ka), dissociation rate constant (kd), affinity constant (KD) and saturation response (Rmax).
# [3] = target: T2, recombinant human full-length TDP-43 …; assay: SPR 8K, immobilized soluble TDP-43
# Experimental: as §1
# [4] = target: T1, TP-51 peptide (aa 352-414 of SEQ ID …); assay: SPR 8K, mAb captured, TP-51 injected
# Experimental: as §2, §3, §4
Kd [1],koff [1],kon [1],Kd [2],koff [2],kon [2],Kd [3],koff [3],kon [3],Kd [4],koff [4],kon [4],Binder
0.15 nM,8.4e-06 s⁻¹,58000 M⁻¹ s⁻¹,2.4 nM,9.3e-05 s⁻¹,39000 M⁻¹ s⁻¹,–,–,–,–,–,–,"cACI-7069-633B12-Ab1 (human IgG1 chimeric) (antibody, V domains shown, also called chimeric antibody) VH: EVQLQQSGPELVKPGASVKISCKTSGFTFTEYSMHWVKQSHGKSLEWIGGINPNNGGTSYNQKFKGKATLTVDKSSSTAYMELRSLTSEDSAVYYCARESWGQGTTLTVSS VL: not shown"
0.652 nM,2.2e-05 s⁻¹,47000 M⁻¹ s⁻¹,6.4 nM,0.0011 s⁻¹,170000 M⁻¹ s⁻¹,–,–,–,–,–,–,"hACI-7069-633B12-Ab1_H16L14 (IgG1) (antibody, V domains shown, Human IgG1 / kappa) VH: EVQLVQSGAEVKKPGASVKVSCKASGFTFTEYSMHWVRQAPGQRLEWMGGINPGNAGTSYNQKFKGRVTITVDTSASTAYMELSSLRSEDTAVYYCARESWGQGTTVTVSS VL: DVVMTQSPLSLPVTLGQPASISCKSSQSLLHSDAKTYLNWLQQRPGQSPRRLIYLVSKLDSGVPDRFSGSGSGTDFTLKISRVEAEDLGVYYCFQGTHFPHTFGQGTKLEIK"
0.113 nM,8.3e-06 s⁻¹,74800 M⁻¹ s⁻¹,–,–,–,–,–,–,–,–,–,"hACI-7069-633B12-Ab1_H15L18 (IgG1) (antibody, V domains shown, Human IgG1 / kappa) VH: QVQLVQSGAEVKKPGASVKVSCKASGFTFTEYSMHWVRQAPGQRLEWMGGINPGNAGTSYNQKFKGRVTITVDTSASTAYMELSSLRSEDTAVYYCARESWGQGTTVTVSS VL: DVVMTQSPLSLPVTLGQPASISCKSSQSLLHSDAKTYLNWLQQRPGQSPRRLIYLVSKLDSRVPDRFSGSGSGTDFTLKISRVEAEDLGVYYCFQGTHFPHTFGQGTKLEIK"
–,–,–,–,–,–,0.45 nM,1.4e-05 s⁻¹,32000 M⁻¹ s⁻¹,2.1 nM,0.00021 s⁻¹,97000 M⁻¹ s⁻¹,"hACI-7069-633B12-Ab1_H20L18 (IgG4) (antibody, V domains shown) VH: EVQLVQSGAEVKKPGASVKVSCKTSGFTFTEYSMHWVRQAPGQRLEWIGGINPGNAGTSYNQKFKGRVTITVDTSASTAYMELSSLRSEDTAVYYCARESWGQGTTVTVSS VL: DVVMTQSPLSLPVTLGQPASISCKSSQSLLHSDAKTYLNWLQQRPGQSPRRLIYLVSKLDSRVPDRFSGSGSGTDFTLKISRVEAEDLGVYYCFQGTHFPHTFGQGTKLEIK"
–,–,–,–,–,–,0.508 nM,1.5e-05 s⁻¹,29000 M⁻¹ s⁻¹,2.3 nM,0.00026 s⁻¹,110000 M⁻¹ s⁻¹,"hACI-7069-633B12-Ab1_H19L19 (IgG4) (antibody, V domains shown) VH: QVQLVQSGAEVKKPGASVKVSCKTSGFTFTEYSMHWVRQAPGQRLEWIGGINPGNAGTSYNQKFKGRVTITVDTSASTAYMELSSLRSEDTAVYYCARESWGQGTTVTVSS VL: DVVMTQSPLSLPVTLGQPASISCKSSQSLLHSDAKTYLNWLQQRPGQSPKRLIYLVSKLDSRVPDRFSGSGSGTDFTLKISRVEAEDLGVYYCFQGTHFPHTFGQGTKLEIK"
0.235 nM,1.8e-05 s⁻¹,47000 M⁻¹ s⁻¹,1.4 nM,0.00023 s⁻¹,170000 M⁻¹ s⁻¹,–,–,–,–,–,–,"hACI-7069-633B12-Ab1_H20L19 (IgG1) (antibody, V domains shown, Human IgG1 / kappa) VH: EVQLVQSGAEVKKPGASVKVSCKTSGFTFTEYSMHWVRQAPGQRLEWIGGINPGNAGTSYNQKFKGRVTITVDTSASTAYMELSSLRSEDTAVYYCARESWGQGTTVTVSS VL: DVVMTQSPLSLPVTLGQPASISCKSSQSLLHSDAKTYLNWLQQRPGQSPKRLIYLVSKLDSRVPDRFSGSGSGTDFTLKISRVEAEDLGVYYCFQGTHFPHTFGQGTKLEIK"
0.205 nM,9.6e-06 s⁻¹,48000 M⁻¹ s⁻¹,2.8 nM,0.00015 s⁻¹,53000 M⁻¹ s⁻¹,–,–,–,–,–,–,"hACI-7069-633B12-Ab1_H19L18 (IgG1 isotype) (antibody, V domains shown, Human IgG1 / kappa; also called hACI-7069-633B12-Ab1_H19L18 (hIgG1 isotype)) VH: QVQLVQSGAEVKKPGASVKVSCKTSGFTFTEYSMHWVRQAPGQRLEWIGGINPGNAGTSYNQKFKGRVTITVDTSASTAYMELSSLRSEDTAVYYCARESWGQGTTVTVSS VL: DVVMTQSPLSLPVTLGQPASISCKSSQSLLHSDAKTYLNWLQQRPGQSPRRLIYLVSKLDSRVPDRFSGSGSGTDFTLKISRVEAEDLGVYYCFQGTHFPHTFGQGTKLEIK"
0.145 nM,6.4e-06 s⁻¹,44000 M⁻¹ s⁻¹,6.2 nM,0.00021 s⁻¹,35000 M⁻¹ s⁻¹,–,–,–,–,–,–,"hACI-7069-633B12-Ab1_H23L20 (IgG1) (antibody, V domains shown, Human IgG1 / kappa) VH: QVQLVQSGAEVKKPGASVKVSCKTSGFTFTEYSMHWVRQAPGQRLEWIGGINPGNGGTSYNQKFKGRVTITVDTSASTAYMELSSLRSEDTAVYYCARESWGQGTTVTVSS VL: DVVMTQSPLSLPVTLGQPASISCKSSQSLLHSDGKTYLNWLQQRPGQSPRRLIYLVSKLDSRVPDRFSGSGSGTDFTLKISRVEAEDLGVYYCWQGTHFPHTFGQGTKLEIK"
